Measurements from patent US20090053233A1 (LABORATOIRE FRANCAIS DU FRACTIONNEMENT ET DES …, published 2009).
Numbering of substitutions follows the chain as printed.

B1: anti-CD20 chimeric antibody EMAB6 produced by clone R509 (YB2/0 cell line) (antibody, human IgG1, kappa)
heavy: not shown
light: QIVLSQSPAILSASPGEKVTMTCRASSSVSYMHWYQQKPGSSPKPWIYATSNLASGVPARFSGSGSGTSYSFTISRVEAEDAATYYCQQWTFNPPTFGGGTRLEINRTVAAPSVFIFPPSDEQLKSGTASVVCLLNNFYPREAKVQWKVDNALQSGNSQESVTEQDSKDSTYSLSSTLTLSKADYEKHKVYACEVTHQGLSSPVTKSFNRGEC
notes: Murine-human chimeric IgG1 kappa (murine CAT-13.6E12 variable regions, human gamma1 and kappa constant regions), produced in rat YB2/0 cells, low fucose; The cloned V fragments carry the natural signal peptide; also called chimeric EMAB6 antibody; AMAB6
B2: anti-CD20 chimeric antibody EMAB603 produced by clone R603 (YB2/0 cell line) (antibody, human IgG1, kappa)
heavy: not shown
light: B1 light with N106K
notes: Murine-human chimeric IgG1 kappa; Produced in rat YB2/0 cells; also called chimeric EMAB603 antibody; EMBA603

Tests used:
[1] = molecular target: CD16 (FcγRIIIA) receptor expressed on Jurkat-CD16 cells (human, UniProt P08637 17-208); assay: cell-based or functional assay
Sequence of CD16 (FcγRIIIA) receptor expressed on Jurkat-CD16 cells (P08637 17-208): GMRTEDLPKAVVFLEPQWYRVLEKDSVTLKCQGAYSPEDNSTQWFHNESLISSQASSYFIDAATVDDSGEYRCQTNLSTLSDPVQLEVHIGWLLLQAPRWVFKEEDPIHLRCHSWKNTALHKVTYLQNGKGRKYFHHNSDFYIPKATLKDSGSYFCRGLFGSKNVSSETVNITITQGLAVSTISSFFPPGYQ

[2] = molecular target: T1, CD20 antigen expressed on Raji cells (UniProt P11836 1-297, limits assumed); assay: flow cytometry competition on Raji cells; competitor CAT-13.6E12 detected with PE anti-mouse IgG
T1 construct: whole, on cells; Raji is a human B cell line
T1 sequence (looked up): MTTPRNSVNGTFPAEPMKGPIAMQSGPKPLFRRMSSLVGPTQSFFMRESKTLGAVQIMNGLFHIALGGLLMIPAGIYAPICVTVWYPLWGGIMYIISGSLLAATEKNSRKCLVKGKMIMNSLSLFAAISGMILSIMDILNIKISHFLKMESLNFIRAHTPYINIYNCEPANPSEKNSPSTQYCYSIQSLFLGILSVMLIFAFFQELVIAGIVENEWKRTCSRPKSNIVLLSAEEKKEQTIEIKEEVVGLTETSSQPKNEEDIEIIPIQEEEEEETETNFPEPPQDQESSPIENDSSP

[3] = molecular target: T1, CD20 antigen expressed on Raji cells; assay: specificity study, as for EMAB6 (competition with CAT-13.6E12 on Raji cells); no details given

Binder	Rituxan® EC50/EMAB6 EC50 ratio, IL-2 secretion by Jurkat-CD16 cells in the presence of Raji cells [1] [ratio]	binding result [2]	binding result [3]
B1	~15	binds	
B2			binds
